The values below come from publication doi:10.64898/2025.12.17.695035.

Usually Kd stands for the equilibrium constant for the complex coming apart. Read a high Kd as weaker binding.

The experiment addresses E. coli RNAP as used in the ITC experiments (E. coli) (UniProt P0A7Z4). As to the kind of experiment: ITC.

The substance “Escherichia phage protein EP1 (from UniProt A0A0N9RSC1 1-107) (natural protein)” gave a Kd of 34 nM.
